Test results as given in the domain aggregation screens of Martell et al. (2025).

Test: soluble fraction after stress (log2 fold change); higher = more stays soluble; pooled small domains, quantitative proteomics
Conditions: stress: 50 degC
How it was run: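 The measure of aggregation propensity here is the base-two logarithm of the fold change in the soluble amount of each protein after stress. A higher value means more of that protein stays in solution. Stress was applied at 50°C to pooled libraries of small protein domains, read out by high-throughput quantitative proteomics.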

In order of falling “soluble fraction (log2)” value:
1. HMEAYMVPNVKNKTLNEAQQALSNQKLKGLVIDSSYVKGVPDGMVLDQNPAGGARVKEGRTIYLTVTTS  0.318
2. HMDVQPTTTKTMFYTVQQGETLFSISRKFGISVEEITKKNPLASSGLTVGMELLLPEKKEINSTIQS  0.265
3. HMDVFTAKTASHIQELREKLGQQAVFGRSDVQNALGLKATRSSALLREMAEHGIIEPVTGYGKGRYHFRS  0.225
4. HMDTVSYSTLLRDIDAKEIKQLDLVPGRREVRVQYNDGRRVTVPVFANDNQILRAAESSGTPLTVV  0.183
5. HMEDIPENIRYKFLLKELKENEHLNILDKENIARKLTEIDLPELEKELLENEILNSTIKDYLGIKLV  0.173
6. HMEDKKQVLYELITDKSYRPLRFKELAVLLMVPKALRGELKQTLDELIKEGKITVDSSSRYRAA  0.133
7. HMEAEGLDFAPMPGEIGKKLWQEVSKEAWAGWLKHQTMLVNENRLSFVDPAARKYLTEQTEAYFFG  0.131
8. HMEALNIEQKKVEIINVLLEKGKGKGRLSYKEISDQIDTVELDKDQMDELYETLMTNGIEIV  0.114
9. HMEDGEVTVPDLRGLTIKEAGTILEKLGLHLSPVGTGLAVRQDVAPGSKVARDTTITVEFEPPDIQVLR  0.103
10. HMEAYLPVTVVSDGKILTGNLEKAGKNEKWLENVLSELKTDVKNTLLLTVDPKDGLIFYPKG  0.0932
11. HMDTSISHLVGRTGEAVTDLRPAGTVMIDGELYDARATEGFIEKGEIVKAIKYQYGQLNVRRVSK  0.0877
12. HMDYEVPEELEEKFSENPQFKEAFDNLTPGRQHQYIYHISQAKRSQTRINRIEKYYEHILNGKGMQD  0.0659
13. HMDYGTATASAILYLEKIDPENPYLLLAKDTITTNPKMSVNFALKGIIESKKGEKEENLNKALEIMSSL  0.049
14. HMDTSADEVKQLIASFVEQEDKRKPLSDQKIVELLAEKEQKISRRTVAKYRDALNIPSSSKRKRF  0.0434
15. HMEDKFEYQGERKSLIYPTSFSELTEALGVRNMLQSIIDFATRDEDTSGYEEMKERQNEYIQEYL  0.0302
16. HMEAEVIKTASDMADRNGLHNVSLKAIAENLGIRTPSLYNHIGSLDELLREIAHSGMRTMNE  0.02
17. HMEDEISLGAINVPRGSVIVTAGGARLVEGSDYTVDYYSGTVKILNKSLLDAGTPINVSLET  0.0198
18. HMEAKTSNPDYHARLGLTEGEGNDSALGVSVKAAEGGFGLLFGNKVGSDQLVRFANEDQVWLVNRALS  0.0188
19. HMDYTPIEVKDLPQAIQDALTKNFSEYTVKSAAYQEDEDGVKIYQVTVVDEEGTEANIFFTEKGE  0.0163
20. HMEDSHIYPVSFNGKMRFKLELPVSMNKKEIEEVVLQHEDAQKWLNGQNPKKVIVVPKRIINIV  0.0081
21. HMEDPLGDLIGRIAAATGRPVQDIVAEVHRVVTDHFDGNLRVEAAAVILARKYGVAFEDKLSALQRSV  0.00767
22. HMEAPNELLVPEGARPARADRVLAAAFPEHSRTALQRAFDAGLVRRANLVLSRDTAVAGGDRIAFSLPAV  -0.00557
23. HMEDYYKILGVQSNSNPDDIKKAYRKLSLKHHPDRGGDASEFKKINEAYQTLGTPEKRKMYDMQQNN  -0.0117
24. HMEDNYYENKINYLFGYLDEADKEISVNSILDFHLAHRTNPEFVFEPKKNTNPLIWKYLSNSNLLY  -0.0177
25. HMDYKSNLQEMVQTTKKSVTYELVKEEGPAHDRTFTMNVIVDGIVLGTGTAKSKKEAEQEAAHQALEKKA  -0.0398
26. HMEATEFYLEDLTGQMYNDVVNDEKYAGKIVFEKEEVQSDGEEAIGQILNQRPAGNMNVRIGTTVTLVVNA  -0.0405
27. HMEAKSSTKALLDVVLGRNGVSTANVAKSLNISVQNASTRLKKLSSEGVIMRSEVSSPTGGIEFIYS  -0.0504
28. HMDTQKYDLNDDGRFDVQDVTYLQIKIAGDGELTDNQKKIADYNNDGKIDVQDVTSAQMLIS  -0.0732
29. HMEAEPRLLDLPPGTRAGRLDKVLAQLLPEHSRSRLQGWIERGGVLVNGKEASVRQVVGPGDQLTVWEEAA  -0.0918
30. HMEDADERRALEVLNQLLDLPEREQEAALAALSLPPALARRVRSLLSVQTRAADLFDTAPSP  -0.0946
31. HMDVQEILGALSPDEKAAIGQLTSGEKHIDQIIAATRLPAARITSALTLLQIKGYVRALPGKRFSLTEKQ  -0.0961
32. HMEAMITEVKRINYGLISDISKSLDPFKSEGGHIIVDKRTNTFILTDLRANIEKMLWSIEIMD  -0.111
33. HMDVMNEIQQKAFDIYIQSASLKNDFTPISERALAKKLHDMGLKSSMSAIGRWKKKFGWVQSLQNKVTLA  -0.128
34. HMEDTVNVPIQINGKLRHVIQVQIGTSEEEIQKIALSEEQVKKFTDGHEILKVMVPKGKLVSIVI  -0.129
35. HMEAGLRMPEQLTAFSALALLQKVRDSGPLTDAQKEQLDADVLRIEASHFGKADREALELEEILKQWLSRV  -0.135
36. HMDVIDDAQAMEIALEDAGLSMDDLDRYELELHTKRSELVYSIELKSGTEEYEYDLRAADGTILKRDTDF  -0.168
37. HMDVSEITTIKWIIKETKLGINEKILIYVNSKNFTVETLMEGFEIMSKYLVENVSSDKIVYIKN  -0.179
38. HMDVLDVADNVNDDMSFADAFAAARSEVGAGGIFYWHGKAYGTYYENEWAGMSEEDKADYWDAVARTTS  -0.18
39. HMDVADITGTRKAAILLLTMDEELSKELLKEFERHEIEAIGKEIANIKYIPENIVKQVHSEFLKNINKS  -0.212
40. HMDVNKDLLGETLEKAKSYKADDWRKASYEALQKAIVEAEAVYKDEEADQVAVDRKVAALNKAINNLEAKG  -0.234
41. HMEDEVSSSAAYQALLEKGVSKTLARSWVIDYGEAYVLDKVDLTTSQAARGKIKSSTAGFLKAAIEEDFHN  -0.244
42. HMEAVIENAAIIKQNSGGYAVRATVNGVDLGMKPVERATALLYFSLTDKLEKDRLLSHTLQKTYGDLSA  -0.254
43. HMEDETAKVLRLLAENNGYLPYNDKSDPTDIYAFFGMSKKAFKMTTGNLYKQKKIQFTQTGIQLIE  -0.347
44. HMEASSTAIQAMIRRLIDDENPRKPLSDAKLADLLKSSGIPVARRTVAKYREAMNISASHERVRI  -0.356
45. HMDVNPETLSYYIERADISLDELRTSVKGIDLFLTGEKQPTFNQISNIAKKLNIPTGLLLINKPIEI  -0.375
46. HMEAEMLYQVKVKITNLVIRSGAGAIYPIVKRYASGVLPIYEEKNGYGKIAVGQWISLSPEFVERVD  -0.385
47. HMEARYQLREVSLDGLRSGMILNADVLSTDGVLMARKGLEVSGLLRSRLEAFAKMERIEPTFKVLVPIAPP  -0.389
48. HMDVLSPEEWIEFRTAYNNNRYISQYGSKGATIEDDYATRLAMIGGKESYYFLNDPRWTEPGYGNLK  -0.437
49. HMDVPTSSITEVKKSPMDVFAQARKAETGVYIFNREKIAGVMLTKEQYEALVEELNTLRDTL  -0.438
50. HMDVNSRIRQFLKKMKITVQTFESSIGKTNGYIAHTKSPTAGVLAEIAKVYPDLNLDWLITGEGEMLKN  -0.468
51. HMDVTDRLARRLQGLRSAQGLSLDALAARSGVSRSNISLIERGQSSPTATVLDKLSAALGVTLAALFEEP  -0.474
52. HMEDLDKIISAYLDENPQIVSDYGKGNKKAVNSAIGFVMKSTGGKYSSSDIVDAVRSMIVSISV  -0.482
53. HMEDDRLIQNLLLTAKNLVMDVGRMDESALAENEDTVRTAMLFALGYLYENRSNPDYHKLTLNLRSILFA  -0.493
54. HMEAFAEAVASMLRKLQPEFAIDLVGPRELLVNGRRLDLENLYRMVNHEPVRGQEIVEHYLDQLFAG  -0.53
55. HMEDSEYDRLLAEIDEGIRKAIETLEPVELSPQNARVRRIQHQIIEKYQLHSDSVGEEPYRRVRIL  -0.593
56. HMEDVLVTQIIQLKHVDANDMKTLFTPLLSRGSSQLLAYPQSNVLIITDTRSNIKKITEILDIIDKS  -0.629
57. HMDYTGIPQSLLDLMKKDNIMPMQIQRAVAERNYYPVDTPISNYDPMFIEAKLVGAWDQVLNVISHLDLP  -0.649
58. HMEATVGSRVRLARIGLTLTQKQLAQAVGVSANHLAMVERGSKHASEDLLQRIATATHTTYEWLMGTSEHQ  -0.845
59. HMEDVRSLTGPEKAAIILLSLGEEHGQGVWRMFDDEEVKEVSQIMANLGTISASVVEKLLVEFVSQMST  -0.873
60. HMEDGEALARAVASLPGKYREVLFLKYSHGYSVDEIALILSMSKENVKKTIQRARKKLEQLLESE  -0.898
61. HMEALPSNLRRLRLEAQLTLDRLGALSGVSRAMISKIERGASVPTATMLGKLAAALQVSLSQLL  -0.97
62. HMEAEQLEAIRSALQQLSDMNRTVFNLHVVDGYKHEEIAAMLNITTGTSKAHLHRAKKRLRELID  -0.975
63. HMEDAFLQRLISIIEANLSNVDFNVKMLAEQLNMSQPTLYRKVKQRSELSVIDMIRSIRILSLIHISEPTR  -0.988
64. HMEDKFEYQGELKSLIEPTSFSELVSALNVRDTLQAIIDFAMREEDTSGYEELKVRQNDYIQEYLNSIGNF  -1.04
65. HMEDSAKRHQIMDGARRVFMDLGFDGASMNEIARAAGVSKGTLYVYFTDKNRLFEAIVEQESL  -1.37
66. HMDTPMYMAIIEEVRFQIANEILKEGEQLPSIRNLAKTLKVSVITVKRAYKELEEAGYITTIPAKGSKVS  -1.43
67. HMEDIKHVVANNIKKYRKEERLTLQQLSYLTGVSKTMLNQIETEKSSPSITILWRISSGLKIPLSKLISSP  -1.61
68. HMEADERRNEILDAAETLITEKGYSKTTIIDILNQVGIAKGTFYYYFKSKEEVMDAIIERFI  -2.25
69. HMDWVAYGAELRRRRLLAGWTVAELSRRINLSGMTIHQIEKGRGRLRPSELTLAKLAAALGMPTP  -3.47
